Values of other authors as cited in publication PMC11581309.
pKd: −log10 of the molar value.

Key:
CDH1 (Gallus gallus) = CDH1 (Gallus gallus) (UniProt P08641)
CDH1 (Mus musculus) = CDH1 (Mus musculus) (UniProt P09803)
CDH1 (Homo sapiens) = CDH1 (Homo sapiens) (UniProt P12830)
CDH2 (Gallus gallus) = CDH2 (Gallus gallus) (UniProt P10288)
CDH2 (Mus musculus) = CDH2 (Mus musculus) (UniProt P15116)
CDH2 (Homo sapiens) = CDH2 (Homo sapiens) (UniProt P19022)

For CDH1 (from UniProt P08641), the pKd (CDH1 (Gallus gallus)) is listed as 3.96.
For CDH1 (from UniProt P09803), the pKd (CDH1 (Mus musculus)) is given as 3.80.
In the case of CDH1 (from UniProt P12830), the pKd (CDH1 (Homo sapiens)) is given as 3.66.
In the case of CDH2 (from UniProt P10288), the pKd (CDH2 (Gallus gallus)) is listed as 4.69.
In the case of CDH2 (from UniProt P15116), the pKd (CDH2 (Mus musculus)) is listed as 4.65.
In the case of CDH2 (from UniProt P19022), the pKd (CDH2 (Homo sapiens)) is given as 4.66.
